The values that follow come from article PMC9352726 (Nature Communications, 2022).

Experiment [1] deals with T1, purified recombinant YspE1, full length (Yersinia pestis, UniProt A0A3N4BII9 1-626).
T1 sequence: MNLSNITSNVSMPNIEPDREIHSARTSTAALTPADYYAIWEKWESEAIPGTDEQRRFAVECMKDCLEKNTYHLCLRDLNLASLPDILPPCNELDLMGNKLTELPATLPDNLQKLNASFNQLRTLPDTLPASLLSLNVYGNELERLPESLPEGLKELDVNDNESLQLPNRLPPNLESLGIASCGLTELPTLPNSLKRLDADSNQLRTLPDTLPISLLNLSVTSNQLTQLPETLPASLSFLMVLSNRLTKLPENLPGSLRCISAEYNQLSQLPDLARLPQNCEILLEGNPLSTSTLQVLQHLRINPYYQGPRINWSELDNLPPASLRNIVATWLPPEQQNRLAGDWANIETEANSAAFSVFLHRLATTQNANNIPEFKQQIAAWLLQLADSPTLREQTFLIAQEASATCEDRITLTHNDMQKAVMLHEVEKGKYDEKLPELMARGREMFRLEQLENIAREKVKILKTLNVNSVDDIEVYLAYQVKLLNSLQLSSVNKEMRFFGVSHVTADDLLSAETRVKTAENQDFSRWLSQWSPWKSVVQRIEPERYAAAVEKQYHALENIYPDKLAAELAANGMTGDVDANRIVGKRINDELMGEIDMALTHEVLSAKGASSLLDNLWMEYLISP
In words: SPR; Biacore T200; […] (0–20 μM) […] (20 mM HEPES pH 7.4, 150 mM NaCl, 3.4 mM EDTA, 0.005% P20); 25 °C. Particulars: both partners purified. For orientation: SPR reads the build-up and loss of mass on a sensor chip optically.

The target of experiment [2] is T2, purified recombinant YspE2, full length (Yersinia pestis, UniProt A0AAP0VE47 1-605).
T2 sequence: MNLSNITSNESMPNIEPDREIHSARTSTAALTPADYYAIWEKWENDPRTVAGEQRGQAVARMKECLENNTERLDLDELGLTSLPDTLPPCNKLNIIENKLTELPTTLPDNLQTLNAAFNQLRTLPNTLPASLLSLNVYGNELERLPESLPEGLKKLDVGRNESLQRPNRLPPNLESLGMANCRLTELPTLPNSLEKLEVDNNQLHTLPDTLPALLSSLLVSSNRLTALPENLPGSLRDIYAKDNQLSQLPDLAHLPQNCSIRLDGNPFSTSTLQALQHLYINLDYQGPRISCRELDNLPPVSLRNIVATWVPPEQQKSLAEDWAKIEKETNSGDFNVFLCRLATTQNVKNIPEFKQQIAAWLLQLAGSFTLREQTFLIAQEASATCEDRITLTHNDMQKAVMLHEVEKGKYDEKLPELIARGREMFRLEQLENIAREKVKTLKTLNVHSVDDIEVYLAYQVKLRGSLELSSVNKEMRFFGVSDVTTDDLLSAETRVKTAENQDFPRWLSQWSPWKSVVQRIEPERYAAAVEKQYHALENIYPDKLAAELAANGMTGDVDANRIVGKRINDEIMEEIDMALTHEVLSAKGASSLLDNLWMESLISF
The experiment is described as above. Particulars: both partners purified.

What is called Kd is the constant that tells how readily two partners part at equilibrium.

B1: purified recombinant human guanylate-binding protein 1 (hGBP1) (natural protein, UniProt P32455 1-592, looked up)
chain: MASEIHMTGPMCLIENTNGRLMANPEALKILSAITQPMVVVAIVGLYRTGKSYLMNKLAGKKKGFSLGSTVQSHTKGIWMWCVPHPKKPGHILVLLDTEGLGDVEKGDNQNDSWIFALAVLLSSTFVYNSIGTINQQAMDQLYYVTELTHRIRSKSSPDENENEVEDSADFVSFFPDFVWTLRDFSLDLEADGQPLTPDEYLTYSLKLKKGTSQKDETFNLPRLCIRKFFPKKKCFVFDRPVHRRKLAQLEKLQDEELDPEFVQQVADFCSYIFSNSKTKTLSGGIQVNGPRLESLVLTYVNAISSGDLPCMENAVLALAQIENSAAVQKAIAHYEQQMGQKVQLPTETLQELLDLHRDSEREAIEVFIRSSFKDVDHLFQKELAAQLEKKRDDFCKQNQEASSDRCSALLQVIFSPLEEEVKAGIYSKPGGYRLFVQKLQDLKKKYYEEPRKGIQAEEILQTYLKSKESMTDAILQTDQTLTEKEKEIEVERVKAESAQASAKMLQEMQRKNEQMMEQKERSYQEHLKQLTEKMENDRVQLLKEQERTLALKLQEQEQLLKEGFQKESRIMKNEIQDLQTKMRRRKACTIS
notes: also called pSUMO-hGBP1
For the molecule B1, the Kd in experiment [1] was 370 nM; in experiment [2], 1500 nM.
